Reference: patent US20220306688A1 (EMORY UNIVERSITY, published 2022)

Molecular target: T1, KRAS-G12V (Homo sapiens, UniProt P01116 1-189, limits assumed)
T1 construct: also called G12V mutant of KRAS
Test: disruption of the JAK1/KRAS-G12V interaction; the sentence names TR-FRET (FIG. 2B) and GST pull-down (FIG. 2C) and does not say which gave the value; competitor JAK1

B1: RasKi: 8-mer 603-610 (peptide)
peptide: MDYKDDEG
notes: It was co-expressed or transduced by lentivirus in some cell assays; also called 8-mer WT; 8-mer peptide
B1 showed an IC50 of 870 nM.
